Measured values reported in PMC9727190, “Characterization and identification of a novel chromosomal class C β-lactamase, LAQ-1, and comparative genomic analysis of a multidrug resistance plasmid in Lelliottia amnigena P13” (Frontiers in Microbiology, 2022).

Key:
LAQ-1 = target: T1, LAQ-1 (Lelliottia amnigena, UniProt A0A8F5JT47); test: inhibition of nitrocefin hydrolysis, UV-VIS spectrophotometry; assay type: biochemical
T1 construct: gene blaLAQ

[1] = tested on: CO/N=C(\C(=O)N[C@@H]1C(=O)N2C(C(=O)[O-])=C(C[N+]3(C)CCCC3)CS[C@H]12)c1csc(N)n1; test: hydrolysis initial rates, UV-VIS spectrophotometry, Michaelis-Menten fit; assay type: biochemical, Lelliottia amnigena; details: 10 mM phosphate buffer pH 7.0, 37°C
Description: (§1) hydrolysis initial rates, UV-VIS spectrophotometry, Michaelis-Menten fit on LAQ-1

[2] = tested on: CC(C)(O/N=C(\C(=O)N[C@@H]1C(=O)N2C(C(=O)[O-])=C(C[n+]3ccccc3)CS[C@H]12)c1csc(N)n1)C(=O)O; test: as above; assay type: biochemical, Lelliottia amnigena; details: 10 mM phosphate buffer pH 7.0, 37°C
Description: as §1

[3] = tested on: CO[C@@]1(NC(=O)Cc2cccs2)C(=O)N2C(C(=O)O)=C(COC(N)=O)CS[C@@H]21; test: as above; assay type: biochemical, Lelliottia amnigena; details: 10 mM phosphate buffer pH 7.0, 37°C
Description: as §1

[4] = tested on: CC1(C)S[C@@H]2[C@H](NC(=O)[C@H](N)c3ccccc3)C(=O)N2[C@H]1C(=O)O; test: as above; assay type: biochemical, Lelliottia amnigena; details: 10 mM phosphate buffer pH 7.0, 37°C
Description: as §1

[5] = tested on: Cc1nnc(SCC2=C(C(=O)O)N3C(=O)[C@@H](NC(=O)Cn4cnnn4)[C@H]3SC2)s1; test: as above; assay type: biochemical, Lelliottia amnigena; details: 10 mM phosphate buffer pH 7.0, 37°C
Description: as §1

[6] = tested on: CCN1CCN(C(=O)N[C@@H](C(=O)N[C@@H]2C(=O)N3[C@@H]2SC(C)(C)[C@@H]3C(=O)O)c2ccccc2)C(=O)C1=O; test: as above; assay type: biochemical, Lelliottia amnigena; details: 10 mM phosphate buffer pH 7.0, 37°C
Description: as §1

T1 sequence (A0A8F5JT47 entry or part of it): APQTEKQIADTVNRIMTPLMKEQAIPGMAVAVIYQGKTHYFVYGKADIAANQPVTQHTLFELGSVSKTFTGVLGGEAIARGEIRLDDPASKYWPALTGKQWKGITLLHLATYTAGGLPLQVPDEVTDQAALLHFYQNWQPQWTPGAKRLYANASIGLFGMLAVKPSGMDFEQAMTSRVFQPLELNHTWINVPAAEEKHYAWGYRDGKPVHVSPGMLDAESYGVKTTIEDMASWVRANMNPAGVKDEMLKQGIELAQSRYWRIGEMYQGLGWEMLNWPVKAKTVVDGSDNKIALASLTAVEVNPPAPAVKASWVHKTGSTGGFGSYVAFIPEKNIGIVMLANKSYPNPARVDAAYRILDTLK

Compound	IC50 (LAQ-1) [nM]	Km [1] [µM]	kcat [1] [s⁻¹]	kcat/Km [1] [M⁻¹ s⁻¹]	Km [2] [µM]	kcat [2] [s⁻¹]	kcat/Km [2] [M⁻¹ s⁻¹]	Km [3] [µM]	kcat [3] [s⁻¹]	kcat/Km [3] [M⁻¹ s⁻¹]	Km [4] [µM]	kcat [4] [s⁻¹]	kcat/Km [4] [M⁻¹ s⁻¹]	Km [5] [µM]	kcat [5] [s⁻¹]	kcat/Km [5] [M⁻¹ s⁻¹]	Km [6] [µM]	kcat [6] [s⁻¹]	kcat/Km [6] [M⁻¹ s⁻¹]
Nc1nc2c(ncn2[C@@H]2O[C@H](COP(=O)(O)O)[C@@H](O)[C@H]2O)c(=O)[nH]1 [GMP]	2630	–	–	–	–	–	–	–	–	–	–	–	–	–	–	–	–	–	–
NC(=O)[C@@H]1CC[C@@H]2CN1C(=O)N2OS(=O)(=O)O [avibactam]	1.45	–	–	–	–	–	–	–	–	–	–	–	–	–	–	–	–	–	–
LAQ-1 (Lelliottia amnigena)	–	57.05	467	8.18e+06	140	642	4.58e+06	65.4	1110	1.69e+07	436.1	9140	2.1e+07	645	25700	3.99e+07	87.56	9430	1.08e+08
